# Reference: patent publication US20180230219A1 (HELIX BIOPHARMA, published 2018)
# B1: AB4 with linker 2; VR2-38 (SEQ ID NO:27) (VHH)
# VHH: QVKLEESGGGLVQAGGSLRLSCAASGGTASSYAMGWFRQAPGKEREFVAAISRSGGNTDYVDSAKGRFTISRDDAKNTVSLQMNSLRLEDTAVYYCAARYAGTWPNDAGTVYWLPPNYNYWGQGTQVTVSS
# Target: T1, human VEGFR-2/Fc (R&D Systems) (human, UniProt P35968 20-764)
# T1 construct: also called recombinant VEGFR2/Fc; VEGFR/Fc; not shown: Fc part of the bought fusion protein (captured by anti-human IgG-Fc in the ELISA)
# T1 sequence (P35968 20-764): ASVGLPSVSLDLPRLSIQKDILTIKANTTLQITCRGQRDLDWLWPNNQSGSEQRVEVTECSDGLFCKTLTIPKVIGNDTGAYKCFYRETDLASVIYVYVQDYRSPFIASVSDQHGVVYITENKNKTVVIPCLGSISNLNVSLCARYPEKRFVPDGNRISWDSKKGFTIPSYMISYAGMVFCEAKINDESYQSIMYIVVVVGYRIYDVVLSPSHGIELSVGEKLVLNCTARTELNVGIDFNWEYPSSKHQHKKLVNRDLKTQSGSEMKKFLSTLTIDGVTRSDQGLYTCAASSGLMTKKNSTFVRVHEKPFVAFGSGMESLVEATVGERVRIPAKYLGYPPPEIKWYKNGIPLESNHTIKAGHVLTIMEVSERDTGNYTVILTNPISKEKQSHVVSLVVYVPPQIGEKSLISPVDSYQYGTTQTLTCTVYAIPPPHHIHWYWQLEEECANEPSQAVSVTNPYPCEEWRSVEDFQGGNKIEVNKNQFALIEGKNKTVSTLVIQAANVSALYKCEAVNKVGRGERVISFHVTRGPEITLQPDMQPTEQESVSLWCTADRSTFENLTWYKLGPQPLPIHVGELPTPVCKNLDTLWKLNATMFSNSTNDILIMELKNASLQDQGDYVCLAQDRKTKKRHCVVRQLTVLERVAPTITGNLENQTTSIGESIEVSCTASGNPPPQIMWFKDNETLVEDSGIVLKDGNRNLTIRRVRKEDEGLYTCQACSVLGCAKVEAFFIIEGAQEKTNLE
# Test: SPR, Biacore 3000, human VEGFR-2/Fc immobilized
binder,measurement,value
B1,Kd,80 nM
same,koff,0.015 s⁻¹
